From PMC6488296, “Optogenetic control shows that kinetic proofreading regulates the activity of the T cell receptor” (eLife, 2019)

Biological target: T1, PhyB_(1-651)-Avitag-His6 (A. thaliana, UniProt P14713 1-651, phycocyanobilin chromophore; biotin on the Avitag)
T1 construct: phytochrome B (PhyB), Arabidopsis thaliana, the light-responsive N-terminal 651 amino acids; 740 nm light puts them in the OFF state; also called PhyB(660); PhyB(740); source: E. coli BL21(DE3) co-transformed with p171 (phycocyanobilin production), 50 uM biotin in the medium, purified (Ni-NTA); not shown: Avitag, C-terminal, kept; His6, C-terminal, kept
T1 sequence (looked up): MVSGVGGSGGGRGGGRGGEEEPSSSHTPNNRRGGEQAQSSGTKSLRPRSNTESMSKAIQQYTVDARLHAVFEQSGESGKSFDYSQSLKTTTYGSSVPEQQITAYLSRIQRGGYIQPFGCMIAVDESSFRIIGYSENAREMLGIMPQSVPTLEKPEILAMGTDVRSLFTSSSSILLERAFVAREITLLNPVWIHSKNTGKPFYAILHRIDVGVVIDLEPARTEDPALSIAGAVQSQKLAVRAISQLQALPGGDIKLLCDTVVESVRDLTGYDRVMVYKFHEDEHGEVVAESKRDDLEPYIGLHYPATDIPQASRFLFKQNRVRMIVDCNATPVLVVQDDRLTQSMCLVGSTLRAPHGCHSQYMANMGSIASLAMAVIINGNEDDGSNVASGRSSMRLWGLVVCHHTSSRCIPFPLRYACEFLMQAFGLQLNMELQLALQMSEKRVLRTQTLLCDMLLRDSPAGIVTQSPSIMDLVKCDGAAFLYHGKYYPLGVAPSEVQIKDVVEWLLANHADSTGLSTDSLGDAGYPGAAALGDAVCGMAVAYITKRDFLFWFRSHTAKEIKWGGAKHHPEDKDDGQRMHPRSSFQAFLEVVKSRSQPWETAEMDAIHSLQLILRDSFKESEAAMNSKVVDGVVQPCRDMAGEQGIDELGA
Assay: SEC; 200 ug PhyB illuminated with 660 nm light, added in a 2:1 molar ratio to MBP-PIF (limiting MBP-PIF); 60 min at room temperature; Superdex 200 10/300 GL; PhyB detected at 671 nm
Conditions: both partners purified

B1: MBP-PIF6_(1-100)-His6 (domain or fragment, A. thaliana, UniProt Q8L5W7 1-100, looked up)
chain: MMFLPTDYCCRLSDQEYMELVFENGQILAKGQRSNVSLHNQRTKSIMDLYEAEYNEDFMKSIIHGGGGAITNLGDTQVVPQSHVAAAHETNMLESNKHVD
notes: also called MBP-PIF(wt); pOSY061; source: E. coli BL21(DE3), purified (Ni-NTA); not shown: His6, C-terminal, kept
binding result: binds
